Where a chain is given by its changes, count along the chain named.
B1: H4H12874P (antibody, human IgG4 S228P, kappa, V domains shown)
VH: QVQLVESGGGVVQPGRSLRLSCAASGFNFRNFGMHWVRQAPGKGLEWVAGILYDGSSKYYADSVKDRFTISRDNSKNTLFLQMNSLRAEDTAMYYCAKEEDTAMVPFDSWGPGTLVTVSS
VL: DIQLTQSPSFLSASVGDRVTITCWASQGISSYLAWYQQKPGKAPTLLIYAASTLQSGVPSRFSGSGSGTEFTLTISSLQPEDFASYYCQQLKSYPLTFGGGTKVEIKR
notes: human IgG4
B2: H4H12884P (antibody, human IgG4 S228P, kappa, V domains shown)
VH: QVQLQESGPGLVKPSQTLSLTCTVSGGSISSGGYYWSWIRQHPGKGLEWIGFIYYSGKTYYNPSLKSRLTISVDTSKSQFSLKLRSVTAADTAVYYCARLGYTNSAGWFDPWGQGTLVTVSS
VL: DIQMTQSPSSLSASVGDRVTITCRASQSISSYLNWYQQKPGKAPNLLIYAASSLQSGVPSRFSGSGSGTDFTLTISSLQPEDLATYYCQQSYTTPFTFGPGTKVDIKR
notes: human IgG4
B3: H4H12886P (antibody, human IgG4 S228P, kappa, V domains shown)
VH: EVQLVESGGGLVKPGGSLRLSCAASGFTFSTAWMSWVRQSPGRGLEWVGRMKSKTDGGTTFYAAPVKGRFTISRDDSKNTLYLQMNSLKTEDTAVYYCTTGLVPAFYKYYGVDVWGQGTTVTVSS
VL: DIQMTQSPSSLSASVGDRITITCQASQDITNYLNWYQQKPGKAPNLLIYDASNLVTGVPSRFSGSGSGTDFTFTILSLQPEDIATYYCQQYDSLLTFGPGTKVDIKR
notes: human IgG4
B4: H4H12890P (antibody, human IgG4 S228P, kappa, V domains shown)
VH: EVQLVESGGGLVQPGGSLRLSCAASGFTFNNYAMHWVRQAPGKGLEYVSSISSSGGSTYYEDSVKGRFTISRDNSKNTLYLQMGSLRAEDMAVYYCARSFYGSGTYYDTFDMWGQGTMVTVSS
VL: B2 VL with V15I, S31R, N45K, G64A, L83F, T93S, P100Q, V104L, D105E
notes: human IgG4
B5: H4H12913P2 (antibody, human IgG4 S228P, kappa, V domains shown)
VH: EVQLVESGGGVVRPGGSLRLSCAASGFTFDDYGMSWVRQAPGKGLEWISSINRNGGSADYADSVKGRFTISRDNAKNSLFLQMSSLRAEDTALYHCASGEFRFDYWGQGTLVTVSS
VL: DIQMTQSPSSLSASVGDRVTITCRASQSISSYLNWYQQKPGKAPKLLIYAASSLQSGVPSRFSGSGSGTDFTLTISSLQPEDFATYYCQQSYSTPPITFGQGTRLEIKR
notes: human IgG4
B6: H4H12859P (antibody, human IgG4 S228P, kappa, V domains shown)
VH: QVQLVQSGAEVKKPGASVRVSCKASGYTFTDYDIHWVRQAPGHGLEWMGWINPNSGGTNYAQKFQGRVTMTRDTSISTVYMDLSRLRSDDTAVYYCARADYSSSYYYYGMDVWGQGTTVTVSS
VL: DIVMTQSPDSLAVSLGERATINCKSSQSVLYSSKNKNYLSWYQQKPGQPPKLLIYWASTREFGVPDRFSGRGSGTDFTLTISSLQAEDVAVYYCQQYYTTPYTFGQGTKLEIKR
notes: human IgG4
B7: H4H12863P (antibody, human IgG4 S228P, kappa, V domains shown)
VH: QVQLVESGGGVVQPGRSLRLSCTASGFTFRSYDMYWVRQAPGKGLEWVSVITYDGNNKYYADSVKGRFTISRDNSKNTLFLQMSSLRPEDTAVYYCAKRGLIWVGESFDYWGQGTLVTVSS
VL: DIQMTQSPSTLSASVGDRVTITCRASQSINSWLAWYQQKPGKAPNLLIYKASSLESGVPSRFSGSGSGTEFTLTISSLQPDDFATYYCQQYKSYSWTFGQGTKVEIKR
notes: human IgG4
B8: H4H12871P (antibody, human IgG4 S228P, kappa, V domains shown)
VH: QVQLQESGPGLVKPSQTLSLTCTVSGGSITSGGYYWSWIRQYPGQGLEWIGYIYYSGKTYYNPSFTSRITISVDTSKKQFSLKMSSVTAADTAVYYCARAGFTSSNGWFDPWGQGTLVTVSS
VL: DIQMTQSPSSLSASVGDRVTITCRASQNIRSYLNWYQQKPGKAPKLLIYSASSLQSGVPSRFSGSGSGTDFTLTISSLQPEDFPTYYCQQTYSSPWTFGPGTKVEIKR
notes: human IgG4; also called REGN9434

Target: T1, human IL2Rγ (endogenously expressed on cells) (human, UniProt P31785 23-369)
T1 sequence (looked up): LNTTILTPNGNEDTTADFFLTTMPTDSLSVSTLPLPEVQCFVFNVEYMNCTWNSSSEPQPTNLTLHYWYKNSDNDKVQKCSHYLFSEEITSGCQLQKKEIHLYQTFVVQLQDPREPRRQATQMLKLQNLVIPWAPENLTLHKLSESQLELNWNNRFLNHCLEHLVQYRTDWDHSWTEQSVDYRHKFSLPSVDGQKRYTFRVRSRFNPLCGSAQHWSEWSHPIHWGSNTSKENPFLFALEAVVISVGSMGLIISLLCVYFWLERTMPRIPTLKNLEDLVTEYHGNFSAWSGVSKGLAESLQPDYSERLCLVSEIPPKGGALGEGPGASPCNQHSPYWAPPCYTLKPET
Assay: cell-based or functional assay

Row | IC50; IL-4 250 pM; Ramos.2G6.4C10/STAT3-luc [M] | IC50; IL-7 50 pM; NK92/hIL7R/STAT3-luc [M] | IC50; IL-9 20 pM; NK92/hIL7R/STAT3-luc [M] | IC50; IL-15 60 pM; NK92/hIL7R/STAT3-luc [M] | Max Inhibition (%); IL-2 30 pM; NK92/hIL7R/STAT3-luc [%] | Max Inhibition (%); IL-4 250 pM; Ramos.2G6.4C10/STAT3-luc [%] | Max Inhibition (%); IL-7 50 pM; NK92/hIL7R/STAT3-luc [%] | Max Inhibition (%); IL-9 20 pM; NK92/hIL7R/STAT3-luc [%] | Max Inhibition (%); IL-15 60 pM; NK92/hIL7R/STAT3-luc [%] | Max Inhibition (%); IL-21 5 pM; NK92/hIL7R/STAT3-luc [%] | Binder
1 | > 1e-07 | 4.1e-08 | > 1e-07 | > 1e-07 | 26 | 70 | 93 | 50 | 55 |  | B1
2 |  | 2.3e-09 |  |  | 13 | 19 | 34 |  |  |  | B2
3 | > 1e-07 | > 1e-07 | > 1e-07 | > 1e-07 | 27 | 92 | 81 | 84 | 64 | 18 | B3
4 | > 1e-07 | > 1e-07 |  |  | 15 | 54 | 66 | 36 | 35 |  | B4
5 | > 1e-07 | > 1e-07 | > 1e-07 | > 1e-07 | 24 | 55 | 77 | 57 | 58 |  | B5
6 |  |  |  |  | 29 |  |  |  |  |  | B6
7 | 3.6e-10 | 1.5e-09 | 4.7e-10 |  | 48 | 70 | 42 | 38 | 30 | 28 | B7
8 |  | 8.2e-10 |  |  |  | 31 | 36 |  |  |  | B8

Same assay, conditions: not given

Row | IC50; IL-2 30 pM; NK92/hIL7R/STAT3-luc [M] | IC50; IL-21 5 pM; NK92/hIL7R/STAT3-luc [M] | Binder
9 | 4.3e-10 | > 1e-07 | B7

Target: T2, D1 domain of human IL-2Rγ extracellular domain expressed with a C-terminal myc-myc-hexahistidine tag (human)
T2 construct: also called human IL2Rγ domain 1
T2 chain: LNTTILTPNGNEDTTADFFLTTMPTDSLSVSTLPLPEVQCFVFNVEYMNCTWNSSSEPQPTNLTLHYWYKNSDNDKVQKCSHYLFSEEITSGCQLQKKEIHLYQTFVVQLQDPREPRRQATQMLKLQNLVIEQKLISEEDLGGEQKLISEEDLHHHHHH
Assay: SPR, mAb captured on anti-hFc, 25 C
Experimental: (§1) Equilibrium dissociation constants (KD values) for IL-2Rγ binding to purified anti-IL2Rγ monoclonal antibodies were determined using a Biacore 4000 instrument equipped with a real-time surface plasmon resonance biosensor. All binding studies were performed in 10 mM HEPES, 150 mM NaCl, 3 mM EDTA, and 0.05% v/v Surfactant Tween-20, pH 7.4 (HBS-ET) running buffer at 25° C. and 37° C. The Biacore sensor surface was first derivatized by amine coupling with a monoclonal mouse anti-human Fc antibody (GE, # BR-1008-39) to capture anti-IL2Rγ monoclonal antibodies.
(§2) The dissociation of monoclonal antibody bound IL2Rγ reagents were monitored for 8-10 minutes in HBS-ET running buffer. Kinetic association (kₐ) and dissociation (kd) rate constants were determined by fitting the real-time sensorgrams to a 1:1 binding model using Scrubber 2.0c curve fitting software. Binding dissociation equilibrium constants (KD) and dissociative half-lives (t_{1/2}) were calculated from the kinetic rate constants as: […]

Row | 100 nM Ag Bound [RU] | Kd [nM] | koff [s⁻¹] | kon [M⁻¹ s⁻¹] | t½ [min] | binding result | Binder
10 | 0 |  |  |  |  |  | B1
11 | 51 | 11.8 | 0.00196 | 166000 | 6 |  | B2
12 | 0 |  |  |  |  |  | B3
13 | 1 |  |  |  |  | no binding (tested: 100 nM) | B4
14 | 0 |  |  |  |  | no binding (tested: 100 nM) | B5
15 | 0 |  |  |  |  |  | B6
16 | 55 | 4.74 | 0.000538 | 114000 | 21 |  | B7
17 | 47 | 11.8 | 0.00111 | 94000 | 10 |  | B8

Target: T2, D1 domain of human IL-2Rγ extracellular …
Assay: SPR, mAb captured on anti-hFc, 37 C
Experimental: as §1, §2

Row | 100 nM Ag Bound [RU] | binding result | Kd [nM] | koff [s⁻¹] | kon [M⁻¹ s⁻¹] | t½ [min] | Binder
18 | 1 | no binding (tested: 100 nM) |  |  |  |  | B1
19 | 32 |  | 32.9 | 0.00442 | 134000 | 2.6 | B2
20 | 0 | no binding (tested: 100 nM) |  |  |  |  | B3
21 | 2 |  |  |  |  |  | B4
22 | 1 |  |  |  |  |  | B5
23 | 0 | no binding (tested: 100 nM) |  |  |  |  | B6
24 | 39 |  | 8.69 | 0.00221 | 254000 | 5 | B7
25 | 33 |  | 21.2 | 0.0036 | 170000 | 3.2 | B8

Target: T3, D2 domain of human IL2Rγ extracellular domain expressed with a C-terminal myc-myc-hexahistidine tag (human)
T3 construct: also called human IL2Rγ domain 2
T3 chain: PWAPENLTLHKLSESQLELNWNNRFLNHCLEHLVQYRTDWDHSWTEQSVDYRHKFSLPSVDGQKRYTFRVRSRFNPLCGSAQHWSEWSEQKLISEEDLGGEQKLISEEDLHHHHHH
Assay: SPR, mAb captured on anti-hFc, 25 C
Experimental: as §1

Row | 100 nM Ag Bound [RU] | binding result | Kd [nM] | koff [s⁻¹] | kon [M⁻¹ s⁻¹] | t½ [min] | Binder
26 | 1 | no binding (tested: 100 nM) |  |  |  |  | B2
27 | 35 |  | 0.535 | 0.000148 | 276000 | 78 | B3
28 | -1 |  |  |  |  |  | B4
29 | 37 |  | 2.76 | 0.000708 | 256000 | 16 | B5
30 | -1 |  |  |  |  |  | B6
31 | 0 |  |  |  |  |  | B7
32 | 0 |  |  |  |  |  | B8

Target: T3, D2 domain of human IL2Rγ extracellular …
Assay: SPR, mAb captured on anti-hFc, 37 C
Experimental: as §1

Row | 100 nM Ag Bound [RU] | Kd [nM] | koff [s⁻¹] | kon [M⁻¹ s⁻¹] | t½ [min] | Binder
33 | 2 |  |  |  |  | B2
34 | 26 | 11.4 | 0.000377 | 33100 | 31 | B3
35 | 1 |  |  |  |  | B4
36 | 16 | 12.7 | 0.00337 | 266000 | 3.4 | B5
37 | -1 |  |  |  |  | B6
38 | -1 |  |  |  |  | B7
39 | -1 |  |  |  |  | B8

Target: T3, D2 domain of human IL2Rγ extracellular …
Assay: SPR, mAb captured on anti-hFc, 25 C; 25 C
Experimental: as §1

Row | Kd [nM] | koff [s⁻¹] | kon [M⁻¹ s⁻¹] | t½ [min] | Binder
40 | 214 | 0.0435 | 203000 | 0.3 | B1

— patent US20200247894A1 (Regeneron, published 2020)
